{"source": "patent US5807943A", "about": "“Synthesis of glycopolymers” (Johns Hopkins University, priority 1997, dated 1998)", "key": {"serum-MBP-CRD": {"biological_target": "T1, serum-MBP-CRD (Rattus norvegicus, UniProt P19999)", "T1 construct": "Recombinant rat MBP-CRDs from serum and liver were expressed and purified; made in house; host or cells: bacteria (expression plasmid-bearing bacterial strains, gift of Dr. Kurt Drickamer)", "assay": "Solid-phase binding assay, inhibition of 125I-[mannose30-BSA] binding to serum MBP-CRD", "conditions": "in the concentration range of SBA tested", "protocol": "(§1) Glycoamidase A was from Seikagaku America, Inc. (Rockville, Md.). GlcNAc was purchased from Pfanstiehl Laboratories, Inc. (Waukegan, Ill.). 3-(N-acryloylamino)-propyl β-D-GlcNAc (GlcNAc-NAP) and GlcNAc-O-(CH2)3CH=CH2 were gifts from Dr. Shin-Ichiro Nishimura of Hokkaido University, Japan.\n(§2) All steps were carried out at 4° C. Briefly, CRD (50 μl) was coated onto individual polystyrene wells (Immulon 4 Removawell Strips by Dynatech, from Fisher Scientific). […] Ligands and inhibitors were in 0.5% BSA in the above Tris buffer for binding and inhibition. […] The well contents were then removed, washed, and counted in a Packard Minaxi gamma counter."}, "liver-MBP-CRD": {"biological_target": "T2, liver-MBP-CRD (Rattus norvegicus, UniProt P08661)", "T2 construct": "Recombinant rat MBP-CRDs from serum and liver were expressed and purified; made in house; host or cells: bacteria (expression plasmid-bearing bacterial strains, gift of Dr. Kurt Drickamer)", "T2 sequence (P08661 129-241 limits assumed)": "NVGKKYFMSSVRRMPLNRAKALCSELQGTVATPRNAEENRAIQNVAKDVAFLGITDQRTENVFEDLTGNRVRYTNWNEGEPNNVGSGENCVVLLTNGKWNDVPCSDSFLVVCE", "assay": "Solid-phase binding assay, inhibition of 125I-[mannose30-BSA] binding to liver MBP-CRD", "protocol": "as §1, §2"}}, "data": [{"substance": "soybean agglutinin [SBA]", "values": [{"measurement": "inhibition of the serum-MBP-CRD (in words)", "setting": "serum-MBP-CRD", "value": "no significant inhibition"}, {"measurement": "IC50", "setting": "liver-MBP-CRD; concentration based on Man9 GlcNAc2, 4° C., 20 hr incubation, read-out: I50 for the liver-MBP-CRD", "value": 13.2, "unit": "µM"}, {"measurement": "I50 for the liver-MBP-CRD", "setting": "liver-MBP-CRD; expressed as mg/ml of SBA", "value": 0.4, "unit": "mg/mL"}]}]}
